# Laboratory results taken from patent US20260240831A1, “CANCER STRATIFICATION AND TREATMENT” (Deutsches Krebsforschungszentrum Stiftung des öffentlichen …, priority 2023, published 2026).
# Entries after “also recorded” stand apart in the source; their conditions may differ.
# B1: NOTUM: Wnt antagonist notum polypeptide (Genbank Acc No. NP_848588.3), overexpressed in PDX GBM cells (protein, UniProt Q6P988 20-496, looked up)
# Palmitoleoyl-protein …: SEGRKTWRRRGQQPPPPPRTEAAPAAGQPVESFPLDFTAVEGNMDSFMAQVKSLAQSLYPCSAQQLNEDLRLHLLLNTSVTCNDGSPAGYYLKESRGSRRWLLFLEGGWYCFNRENCDSRYDTMRRLMSSRDWPRTRTGTGILSSQPEENPYWWNANMVFIPYCSSDVWSGASSKSEKNEYAFMGALIIQEVVRELLGRGLSGAKVLLLAGSSAGGTGVLLNVDRVAEQLEKLGYPAIQVRGLADSGWFLDNKQYRHTDCVDTITCAPTEAIRRGIRYWNGVVPERCRRQFQEGEEWNCFFGYKVYPTLRCPVFVVQWLFDEAQLTVDNVHLTGQPVQEGLRLYIQNLGRELRHTLKDVPASFAPACLSHEIIIRSHWTDVQVKGTSLPRALHCWDRSLHDSHKASKTPLKGCPVHLVDSCPWPHCNPSCPTVRDQFTGQEMNVAQFLMHMGFDMQTVAQPQGLEPSELLGMLSNGS
# B2: SFRP1: secreted Wnt antagonist; human SFRP1 cloned downstream of the TCF/Lef promoter, lentivirally overexpressed in GBM cells (protein, UniProt Q8N474 32-314, looked up)
# Secreted frizzled-related …: SEYDYVSFQSDIGPYQSGRFYTKPPQCVDIPADLRLCHNVGYKKMVLPNLLEHETMAEVKQQASSWVPLLNKNCHAGTQVFLCSLFAPVCLDRPIYPCRWLCEAVRDSCEPVMQFFGFYWPEMLKCDKFPEGDVCIAMTPPNATEASKPQGTTVCPPCDNELKSEAIIEHLCASEFALRMKIKEVKKENGDKKIVPKKKKPLKLGPIKKKDLKKLVLYLKNGADCPCHQLDNLSHHFLIMGRKVKSQYLLTAIHKWDKKNKEFKNFMKKMKNHECPTFQSVFK
# What was measured:
# [1] = test system: GBM cells for SFRP1 overexpression; experiment: SFRP1 inhibitor treatment of tumour-bearing human brain organoids, KI-67 immunohistochemistry; format: cell-based; details: 25 μM, 2 days, vs DMSO control; SFRP1-overexpressing GBM cells in human brain organoids
# Description: Lentivirally transduced GBM cells for SFRP1 overexpression were injected into day 116-old human brain organoids and cultured in brain Organoid Differentiation Medium with Vitamin A. Injected organoids were maintained for 15 days on an orbital shaker (70 RPM) at 5% CO2 and 37° C. After 15 days, organoids were transferred to culturing medium supplemented with 25 μM of SFRP1 inhibitor WAY-316606 or 25 μM DMSO as a control. Tumour-bearing organoids were maintained for 2 more days and then fixed with 4% formaldehyde for 1 hour at 4° C. on a roller. Fixed organoids were first placed in 10% sucrose in PBS until tissues sank, then transferred to 30% sucrose in PBS. Organoids were then embedded in OCT compound (Tissue-Tek). […]
# Confocal images of human brain organoids injected with GBM m-Cherry- and sFRP1-expressing cells that were treated with DMSO or sFRP1 inhibitor. Organoids were stained against Ki67 and mCherry and Ki67+/mCherry+ cells were quantified. […] The tumor origin of segmented cells was determined by assessing background corrected mean fluorescence intensities of the 2D integrated mCherry signal. The count of detected Ki67+/mCherry+ cells was then normalized to the imaged organoid volume yielding a density metric representing cycling tumor cells in both WAY inhibitor treated and DMSO control samples.
# PDX GBMs [2] = experiment: scRNA-seq with ptalign cell states of Wnt-antagonist-overexpressing PDX samples; format: in vivo, mouse; details: for Activation state (ptalign cell state) / tumor Differentiation (ptalign aligned pseudotime) / tumor Quiescence (ptalign cell state, incl. astroQ): PDX vs control Wnt-reporter PDX
# Description: For isolation of the xenografted human GBM cells, tumor bearing mouse brains were dissected and single cell suspension was prepared using Brain Tumor Dissociation Kit (P) and gentleMACS Octo Dissociator with Heaters (Miltenyi) according to manufacturer's instructions. mCherry+ cell population was index sorted into 384 well-plates (Eppendorf Lobind). Microplates containing cell lysates were briefly centrifuged, snap frozen on dry ice and were stored at −80° C. Sytox Blue (Life Technologies, 1:1000) was used in all experiments as a dead cell indicator. Index sorting of single cells as well as sorting of bulk samples was carried out using a 100 micron nozzle at a BD FACSAria II or BD FACSAria Fusion at the Flow Cytometry Core Facility at the DKFZ.
# Single cell RNA-sequencing libraries from patient-derived xenografts were prepared using Smart-seq3 platform as previously described (Hagemann-Jensen, Nature Biotechnology, 2020) with minor modifications. The protocol was automated and miniaturized by incorporating liquid handling platforms including Mosquito HV (STPLabtech), Mantix (Formulatrix) and Viaflo 384 (Integra). Briefly, plates were incubated at 72° C. for 10 min to facilitate lysis and denaturation of secondary structures in the RNA. Lysed cells were subjected to reverse transcription in 2 μl using Maxima H-minus reverse transcriptase (Thermo Scientific), an oligo(dT) primer and a template-switching oligonucleotide encompassing an 8-bp unique molecular identifier (IDT). In a randomly selected set of wells, we included ERCC Spike-ins (Ambion) at a 1:2500000 dilution. Full length cDNAs were amplified for 22 cycles of PCR using KAPA HiFi DNA polymerase (KAPA Biosystems). cDNA samples were purified with Ampure XP beads at a 1:0.8 ratio and cDNA quality in randomly selected 10 wells/plate was assessed on a High Sensitivity Bioanalyzer chip (Agilent). cDNA concentrations were quantified using Quant-it PicoGreen dsDNA Assay kit (Thermo Scientific) and Synergy LX multi-mode microplate reader (Biotek). cDNAs were normalized to 250-500 pg μl^−1. 100-200 pg of cDNA per sample was used for tagmentation in 1.2 μl using Illumina XT DNA sample preparation kit. Libraries were finally amplified for 11 cycles of PCR in 4 μl using custom-designed Nextera index primers containing 8-bp index barcode sequences with a minimal Levenshtein distance of 4 as previously published (Buenrostro et al., Nature, 2015). Samples were purified with Ampure XP beads at a 1:0.8 ratio and DNA quality in randomly selected 10 wells/plate was assessed on a High Sensitivity Bioanalyzer chip (Agilent). Libraries were quantified as mentioned above and normalized libraries were equimolarly pooled and purified one last time at a 1:0.8 ratio. Prior to sequencing, final library concentration was determined using Qubit dsDNA High Sensitivity Assay kit (Thermo Scientific) and Qubit fluorometer (Invitrogen) and the average fragment size was calculated on a High Sensitivity Bioanalyzer chip (Agilent). Libraries with 1% spiked-in PhiX control (Illumina) were sequenced at the 75-bp paired end on a high output flow cell using an Illumina NextSeq550 instrument at a sequencing depth of ~1 M reads per cell at the sequencing open lab at the DKFZ.
# In sequence alignment, the position of one query sequence in a larger reference sequence is ascertained by scoring local sequence similarity until an optimal match is found. We employ a conceptually similar strategy to infer a given query cell's optimal positioning in the space of a reference pseudotime trajectory in a method we call ptalign. The ptalign program requires four central inputs: a query counts table, a reference counts table, a reference pseudotime mapping, and a set of genes capturing the reference pseudotime trajectory. Query cells are then placed along the reference pseudotime according to the dynamic of the correlation of their gene expression along the trajectory genes. […]
# PDX GBMs [3] = experiment: Survival of mice bearing Wnt-antagonist-overexpressing T6 PDX GBM; format: in vivo, mouse; details: for overall survival: overexpression under TCF/Lef promoter in PDX vs Wnt-reporter controls
# Excerpt: We identified the secreted Wnt antagonist SFRP1 as being implicated in the Q-A transition in the healthy SVZ. […] Similarly, [22] reports a role of SFRP1 in regulating the activation of human NSCs, and data from our own lab implicates its most-conserved paralog, SFRP5, in the activation of murine NSCs. Following these evidences and in order to target Wnt-active tumor cells, we cloned human SFRP1 downstream of the TCF/Lef promoter and generated T6 PDA and PDX tumors as outlined previously.
# To allow sorting of human GBM cells, cells were infected with the 7TGC (Addgene plasmid #24304) lentiviral vector at a multiplicity of infection (MOI) of 5. Expression of the transduction marker (mCherry) was confirmed by FACS analysis. Second-generation, self-inactivating, replication deficient lentiviral particles were produced, purified and titrated as described previously ([32]).
# For ortotopic injection of lentivirally transduced primary GBM cells into the mouse brain, 5×10^5 cells were cultured as single cell suspension overnight. Newly formed spheres were resuspended in 2 μl of Matrigel, loaded into a NanoFil syringe and stereotactically injected into the striatum (2.5 mm lateral to the bregma at a depth of 3.0 mm) of 8-10 week-old Fox Chase SCID-Beige mice under anesthesia. Tumor growth was longitudinally monitored by magnetic resonance imaging at the Small Animal Imaging Center at the DKFZ. Upon reaching termination criteria, mice were sacrificed and brains were collected after transcardial perfusion. For perfusion, mice were anesthetized by intraperitoneal injection of 800 μl of perfusion solution. After opening the thoracic cavity exposing heart, transcardial perfusion was carried out with 10 ml of ice cold HBSS.
# PDX GBMs [4] = experiment: Tumor IHC morphology of SFRP1-overexpressing PDX; format: in vivo; details: mouse cortex, vs control Wnt-reporter PDX
# T6 PDA = experiment: scRNA-seq with ptalign cell states of SFRP1-overexpressing T6 PDA in human cortical organoids; format: cell-based; details: 2-week PDA replicates, compared with PDX (not shown)
# Description: For injection of lentivirally transduced primary GBM cells into human brain organoids, 3×10^4 cells were cultured as single cell suspension overnight. Newly formed spheres were resuspended in 1 μl of Differentiation Medium with vitamin A, loaded into a NanoFil syringe and injected into the core of 2 month-old organoids under a dissection microscope. Tumor bearing organoids were maintained in Differentiation Medium with vitamin A on an orbital shaker (70 RPM) for 15 days at 5% CO2 and 37° C.
# In sequence alignment, the position of one query sequence in a larger reference sequence is ascertained by scoring local sequence similarity until an optimal match is found. We employ a conceptually similar strategy to infer a given query cell's optimal positioning in the space of a reference pseudotime trajectory in a method we call ptalign. The ptalign program requires four central inputs: a query counts table, a reference counts table, a reference pseudotime mapping, and a set of genes capturing the reference pseudotime trajectory. Query cells are then placed along the reference pseudotime according to the dynamic of the correlation of their gene expression along the trajectory genes. […] The quality of an assigned pseudotime is determined via the computation of a dynamic time warping (DTW) matrix over the pseudotime-binned reference and the equally binned query. […]
Molecule,number of proliferating (KI-67+/mCherry+) tumor cells [1],Activation state (ptalign cell state) (PDX GBMs [2]),tumor Differentiation (ptalign aligned pseudotime) (PDX GBMs [2]),"tumor Quiescence (ptalign cell state, incl. astroQ) (PDX GBMs [2])",overall survival (PDX GBMs [3]),cycling cells (PDX GBMs [2]; PDX vs control),"survival longer than control, on average (PDX GBMs [3]; SFRP1 induction in PDX GBMs, before the experiment was terminated)",overall survival (PDX GBMs [3]; listed as sFRP1),tumor cell morphology (IHC) (PDX GBMs [4]),"effects on Quiescence, Activation and cycling cells in PDA (T6 PDA)"
"O=S(=O)(NC1CCNCC1)c1cc(S(=O)(=O)c2ccccc2)ccc1C(F)(F)F [WAY-316606, 5-(phenylsulfonyl)-N-4-piperidinyl-2-(trifluoromethyl)-benzenesulfonamide]",drastically increases the number of proliferating cells,–,–,–,–,–,–,–,–,–
B1,–,concomitant reduction in activation,without disturbing differentiation,significantly increased quiescence,significantly increased survival,–,–,–,–,–
B2,–,concomitant reduction in the Activation state,without disturbing differentiation; also recorded: not affected,significantly increased quiescence; also recorded: significant increase in tumor Quiescence,significant increase in overall survival,relative increase in cycling cells,1 month,significantly increased survival,extensive morphological changes; also recorded: dominant astrocyte-like morphology,consistent yet weaker
